Experiments:
SOD1(G93A) mice [1] = assay: Intramuscular Salubrinal into one hindlimb of SOD1(G93A) mice: ER stress, UPR, microglia activation, neuromuscular junctions; format: in vivo
embryonic motor neuron = settings: cited from earlier work
motoneurons = settings: in vivo; cited from earlier work
[2] = tested on: murine models of inherited progressive motor degeneration; settings: CNTF and/or BDNF; cited from earlier work
SOD1(G93A) mice [3] = settings: intramuscular applications of CNTF; stated as known effect; cited from earlier work
SOD1(G93A) mice [4] = assay: Intramuscular CNTF in SOD1(G93A) mice: stress responses in VUL MNs and microglia activation; format: in vivo
[5] = early treatment P14 until P32, analyzed at P39
[6] = early treatment P14 until P32, analyzed at P53
[7] = late treatment P39 until P50, analyzed at P53
[8] = CNTF intramuscular from P28 to P40

**Q.** What does the source list for `O=C(/C=C/c1ccccc1)NC(NC(=S)Nc1cccc2cccnc12)C(Cl)(Cl)Cl` (centres unmarked) [Salubrinal]?
**A.** disease process during the Salubrinal treatments (SOD1(G93A) mice [1]; early and late treatments taken together): partially reversed; disease process during administration (SOD1(G93A) mice [1]; early treatment P14 until P32): effectively arrested; UPR (SOD1(G93A) mice [1]; [5]): no evidence of a UPR; microglia activation (SOD1(G93A) mice [1]; [5]): no microglia activation; levels of BiP (SOD1(G93A) mice [1]; early treatment P14 until P32, analyzed at P39 (7 days after discontinuation)): low levels; loss of synaptic vesicles at neuromuscular junctions (SOD1(G93A) mice [1]; [6]): no loss; microglia activation (SOD1(G93A) mice [1]; [6]): mild microglia activation; UPR (SOD1(G93A) mice [1]; early treatment P14 until P32, analyzed at P53 (21 days after discontinuation)): early signs of a UPR; UPR (SOD1(G93A) mice [1]; [7]): mild UPR; loss of neuromuscular junction synaptic vesicles (SOD1(G93A) mice [1]; [7]): no loss; microglia activation (SOD1(G93A) mice [1]; [7]): mild microglia activation

**Q.** For IGF-1: neurotrophic factor, which “embryonic motor neuron survival in culture” value (embryonic motor neuron) is on record?
**A.** Its value is “enhanced”.

**Q.** Which “embryonic motor neuron survival in culture” value (embryonic motor neuron) does the source give for LIF: cytokine here?
**A.** The value was “enhanced”.

B1: BDNF: member of the neurotrophin family (protein, UniProt P23560 19-247, looked up)
Neurotrophic factor BDNF …: APMKEANIRGQGGLAYPGVRTHGTLESVNGPKAGSRGLTSLADTFEHVIEELLDEDQKVRPNEENNKDADLYTSRVMLSSQVPLEPPLLFLLEEYKNYLDAANMSMRVRRHSDPARRGELSVCDSISEWVTAADKKTAVDMSGGTVTVLEKVPVSKGQLKQYFYETKCNPMGYTKEGCRGIDKRHWNSQCRTTQSYVRALTMDSKKRIGWRFIRIDTSCVCTLTIKRGR
**Q.** Which “embryonic motor neuron survival in culture” value (embryonic motor neuron) does the source give for B1 here?
**A.** Its value is “enhanced”.

**Q.** What about the “motoneuronal death occurring naturally during embryonic development” value (motoneurons) of the same molecule?
**A.** Its value is “reduction”.

**Q.** And the “protective effect in two murine models of inherited progressive motor degeneration” value [2]?
**A.** The value was “protective effect”.

B2: NT-3: member of the neurotrophin family (protein, UniProt P20783 139-257, looked up)
Neurotrophin-3: YAEHKSHRGEYSVCDSESLWVTDKSSAIDIRGHQVTVLGEIKTGNSPVKQYFYETRCKEARPVKNGCRGIDDKHWNSQCKTSQTYVRALTSENNKLVGWRWIRIDTSCVCALSRKIGRT
**Q.** For B2, which “embryonic motor neuron survival in culture” value (embryonic motor neuron) is on record?
**A.** Its value is “enhanced”.

B3: NT-4: member of the neurotrophin family (protein, UniProt P34130 81-210, looked up)
Neurotrophin-4: GVSETAPASRRGELAVCDAVSGWVTDRRTAVDLRGREVEVLGEVPAAGGSPLRQYFFETRCKADNAEEGGPGAGGGGCRGVDRRHWVSECKAKQSYVRALTADAQGRVGWRWIRIDTACVCTLLSRTGRA
**Q.** Which “embryonic motor neuron survival in culture” value (embryonic motor neuron) does the source give for B3 here?
**A.** The value was “enhanced”.

B4: CNTF: CNTF rat recombinant protein (Sigma Aldrich); specific stress-protecting factor (protein, UniProt P20294 1-200, looked up)
Ciliary neurotrophic factor: MAFAEQTPLTLHRRDLCSRSIWLARKIRSDLTALMESYVKHQGLNKNINLDSVDGVPVASTDRWSEMTEAERLQENLQAYRTFQGMLTKLLEDQRVHFTPTEGDFHQAIHTLMLQVSAFAYQLEELMVLLEQKIPENEADGMPATVGDGGLFEKKLWGLKVLQELSQWTVRSIHDLRVISSHQMGISALESHYGAKDKQM
**Q.** Which “axonal pathology in VUL MNs” value (SOD1(G93A) mice [3]) does the source give for B4 here?
**A.** Its value is “effectively attenuates”.

**Q.** And the disease progression (SOD1(G93A) mice [3])?
**A.** Its disease progression is “slows”.

**Q.** And the “embryonic motor neuron survival in culture” value (embryonic motor neuron)?
**A.** Its value is “enhanced”.

**Q.** What about the “motoneuronal death occurring naturally during embryonic development” value (motoneurons) of the same molecule?
**A.** Its value is “reduction”.

**Q.** What about the “protective effect in two murine models of inherited progressive motor degeneration” value [2] of the same molecule?
**A.** The value was “protective effect”.

**Q.** What about the “upregulation of BiP in VUL MNs” value (SOD1(G93A) mice [4]; CNTF intramuscular from P20 to P28, before disease onset) of the same molecule?
**A.** The value was “completely prevented”.

**Q.** And the UPR/UPS reaction (SOD1(G93A) mice [4]; [8])?
**A.** The UPR/UPS reaction was “effectively prevented”.

**Q.** What about the “VUL MN BiP and Pi-elF2a signals” value (SOD1(G93A) mice [4]; [8]) of the same molecule?
**A.** The value was “normalized”.

**Q.** What about the “activation of microglia on the spinal cord side ipsilateral to the treatment” value (SOD1(G93A) mice [4]; [8]) of the same molecule?
**A.** The value was “reduced”.

**Q.** What about the “downregulation of stress-related protective pathways in VUL MNs” value (SOD1(G93A) mice [4]; [8]) of the same molecule?
**A.** The value was “counteracted”.

B5: cardiotrophin-1: cytokine present in embryonic muscle (protein, UniProt Q16619 1-201, looked up)
Cardiotrophin-1: MSRREGSLEDPQTDSSVSLLPHLEAKIRQTHSLAHLLTKYAEQLLQEYVQLQGDPFGLPSFSPPRLPVAGLSAPAPSHAGLPVHERLRLDAAALAALPPLLDAVCRRQAELNPRAPRLLRRLEDAARQARALGAAVEALLAALGAANRGPRAEPPAATASAASATGVFPAKVLGLRVCGLYREWLSRTEGDLGQLLPGGSA
**Q.** For B5, which “embryonic motor neuron survival in culture” value (embryonic motor neuron) is on record?
**A.** Its value is “enhanced”.

**Q.** And the “motoneuronal death occurring naturally during embryonic development” value (motoneurons)?
**A.** The value was “reduction”.

B6: GDNF: neurotrophic factor (protein, UniProt P39905 78-211, looked up)
Glial cell line-derived …: SPDKQMAVLPRRERNRQAAAANPENSRGKGRRGQRGKNRGCVLTAIHLNVTDLGLGYETKEELIFRYCSGSCDAAETTYDKILKNLSRNRRLVSDKVGQACCRPIAFDDDLSFLDDNLVYHILRKHSAKRCGCI
**Q.** With B6 as the molecule, how does the “embryonic motor neuron survival in culture” value (embryonic motor neuron) read?
**A.** Its value is “enhanced”.

**Q.** And the “motoneuronal death occurring naturally during embryonic development” value (motoneurons)?
**A.** The value was “reduction”.
